This experiment relates to blood clots (fibrin and NET scaffold). Kind of experiment: Clot formation in recalcified blood with or without PAF-activated neutrophils (thrombolysis). It is filed as cell-based, human. Particulars: tPA 25 μg/mL. As for the experimental part: Fibrin polymerization was induced in blood by recalcification and incubated either in the absence (medium) or presence of neutrophils preactivated by PAF to induce NET formation (neutrophils+PAF). Samples were treated with DNase to digest extracellular traps or tPA for fibrin digestion. […] (Scale bar, 1 cm.) The graph presents quantification of the clots by weighing. […] Data are presented as mean±SEM, n=4; (ANOVA; ***P<0.001). The first bar in each x-axis category represents the untreated samples, the second bar represents the samples treated with DNase, the third bar represents the samples treated with tPA, and the fourth bar represents the samples treated with tPA and DNase.
The relative susceptibility of NETs and fibrin to serve as scaffolds for blood clots to thrombolysis was examined (FIG. 20). Neutrophils were prestimulated with platelet-activating factor to release NETs with recalcified blood under stirring conditions. Two-hundred-fifty microliters of 5×10^6 neutrophils per milliliter in RPMI medium were activated by platelet activating factor (50 μM Calbiochem) at 37° C. under static conditions to induce NET formation. Control samples were 250 μL medium alone, 250 μL of unstimulated neutrophils, or 250 μL of 50 μM PAF in medium. After 10 min, 250 μL of recalcified (40 mM CaCl2) ACD anticoagulated blood was added. The mixture was incubated under stirring conditions (1,000 rpm) at 37° C. using an Eppendorf Thermomixer. Indicated samples were supplemented with tPA (25 μg/mL, Baxter) or DNase 1 (100 U/mL, Worthington Biochem). After 20 min, the blood was passed through a 100-μm cell strainer to isolate the clot. Images were acquired and the clot was determined. Thereafter, 10-μm frozen sections of the clot were prepared and stained for fibrinogen (mouse-antihuman-fibrinogen, Sigma) and VWF (rabbit-antihuman-VWF, Chemicon). Isotype control antibodies were used to determine background staining and DNA was labeled fluorescently by Hoechst 33258 (Invitrogen).

From patent US11819540B2, “Methods for treating and preventing neutrophil-derived net toxicity and thrombosis” (CHILDREN'S MEDICAL CENTER CORPORATION, priority 2011, dated 2023) come the findings set out here.

“Also recorded” adds a separate entry of the source.

B1: tPA: tissue plasminogen activator (25 μg/mL, Baxter) for fibrin digestion (protein, UniProt P00750 36-562, looked up)
Tissue-type plasminogen …: SYQVICRDEKTQMIYQQHQSWLRPVLRSNRVEYCWCNSGRAQCHSVPVKSCSEPRCFNGGTCQQALYFSDFVCQCPEGFAGKCCEIDTRATCYEDQGISYRGTWSTAESGAECTNWNSSALAQKPYSGRRPDAIRLGLGNHNYCRNPDRDSKPWCYVFKAGKYSSEFCSTPACSEGNSDCYFGNGSAYRGTHSLTESGASCLPWNSMILIGKVYTAQNPSAQALGLGKHNYCRNPDGDAKPWCHVLKNRRLTWEYCDVPSCSTCGLRQYSQPQFRIKGGLFADIASHPWQAAIFAKHRRSPGERFLCGGILISSCWILSAAHCFQERFPPHHLTVILGRTYRVVPGEEEQKFEVEKYIVHKEFDDDTYDNDIALLQLKSDSSRCAQESSVVRTVCLPPADLQLPDWTECELSGYGKHEALSPFYSERLKEAHVRLYPSSRCTSQHLLNRTVTDNMLCAGDTRSGGPQANLHDACQGDSGGPLVCLNDGRMTLVGIISWGLGCGQKDVPGVYTKVTNYLDWIRDNMRP
Take B1: where the note is “absence of activated neutrophils (medium), DNase 100 U/mL”, the clot formation result was “prevented clot formation”. For the same molecule, for the setting “presence of PAF-activated neutrophils”, the fibrin in clot entry is “removed fibrin”. The “clot formation / clot size” value (presence of PAF-activated neutrophils, DNase 100 U/mL) was “did not prevent clot formation; also recorded: reduced clot size”.
